Six molecules from article PMC5222340, “The Arginine Pairs and C-Termini of the Sso7c4 from Sulfolobus solfataricus Participate in Binding and Bending DNA” can be followed below.

For series [1], the target named is T1, Sso7c4 wild-type (Sulfolobus solfataricus P2, UniProt A0A0E3K9N8 1-54). The series can be described thus: tryptophan fluorescence quenching; 20 mM Tris-Cl pH 7.5, no added salt, 25 C; FP with 100 nM FAM-DNA, 1 h at room temperature. The conditions noted are these: protein: recombinant; chain copies: 2; blunt, self-complementary.
Target sequence in this assay (A0A0E3K9N8 entry or part of it): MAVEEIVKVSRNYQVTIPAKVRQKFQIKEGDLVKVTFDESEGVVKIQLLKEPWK
Series [2] deals with Sso7c4-R22A (Sulfolobus solfataricus P2, UniProt A0A0E3K9N8 1-54, R22A). The series can be described thus: fluorescence polarization; 20 mM Tris-Cl pH 7.5, no added salt, 25 C; FP with 100 nM FAM-DNA, 1 h at room temperature. The conditions noted are these: protein: recombinant; chain copies: 2; label: 5'-FAM; blunt, self-complementary. For orientation: Polarisation of emitted light reports the rotation of a fluorescent probe.
Chain of Sso7c4-R22A (A0A0E3K9N8 entry or part of it R22A | R22A R22A): as the sequence (A0A0E3K9N8 entry or part of it) above, with R22A counted along it

Series [3] concerns the target Sso7c4-R11A (Sulfolobus solfataricus P2, UniProt A0A0E3K9N8 1-54, R11A). Described as above. The conditions noted are these: protein: recombinant; chain copies: 2; label: 5'-FAM; blunt, self-complementary.
Series [4] addresses T1, Sso7c4 wild-type. The description is as above. As to conditions: protein: recombinant; chain copies: 2; label: 5'-FAM; blunt, self-complementary.
Target sequence in this assay (A0A0E3K9N8 entry or part of it): as the sequence (A0A0E3K9N8 entry or part of it) above
Series [5] has as its target T2, C-terminally truncated Sso7c4 (Sulfolobus solfataricus P2, UniProt A0A0E3K9N8 1-48, del49-54).
T2 chain: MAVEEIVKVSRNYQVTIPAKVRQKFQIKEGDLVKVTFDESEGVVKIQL
Described as above. The conditions noted are these: protein: recombinant; chain copies: 2; label: 5'-FAM; blunt, self-complementary.

The target in series [6] is T1, Sso7c4 wild-type. The series can be described thus: bulk FRET; saturating protein; DNA bent; 20 mM Tris-Cl pH 7.5, no added salt, 25 C; FP with 100 nM FAM-DNA, 1 h at room temperature. As to conditions: protein: recombinant; chain copies: 2; label: Cy3 and Cy5 on the 5' ends; blunt.
The target in series [7] is T2, C-terminally truncated Sso7c4. The series can be described thus: bulk FRET; saturating protein; slight change; 20 mM Tris-Cl pH 7.5, no added salt, 25 C; FP with 100 nM FAM-DNA, 1 h at room temperature. The conditions noted are these: protein: recombinant; chain copies: 2; label: Cy3 and Cy5 on the 5' ends; blunt.
For series [8] the target is unchanged. Kind of series: bulk FRET; saturating protein; DNA straightened; 20 mM Tris-Cl pH 7.5, no added salt, 25 C; FP with 100 nM FAM-DNA, 1 h at room temperature. The conditions noted are these: protein: recombinant; chain copies: 2; label: Cy3 and Cy5 on the 5' ends; blunt.

Chain of Sso7c4-R11A (A0A0E3K9N8 entry or part of it R11A | R11A R11A): as the sequence (A0A0E3K9N8 entry or part of it) above, with R11A counted along it

B1: 20-bp DNA unlabeled (dsDNA)
DNA 1: CCAACACTGGCCAGTGTTGG
DNA 2: CCAACACTGGCCAGTGTTGG
In general, Kd refers to the free concentration of one partner at which half of the binding sites on the other are occupied at equilibrium, for simple one-to-one binding. As for B1, in series [1], the Kd was 22.8 µM.

B2: 5'-FAM-20-bp DNA (dsDNA)
DNA 1: CCAACACTGGCCAGTGTTGG
DNA 2: CCAACACTGGCCAGTGTTGG
As to B2, the Kd was found to be 5.07 ± 0.15 µM in series [2], 3.19 ± 0.12 µM in series [3], 2.73 ± 0.18 µM in series [4] and 12 ± 0.53 µM in series [5].

B3: 5'-FAM-8-bp DNA (dsDNA)
DNA 1: CGCTAGCG
DNA 2: CGCTAGCG
As to B3, the figures for the Kd in series [4] and in series [5] were 14.2 ± 0.26 µM and 15.9 ± 0.53 µM, respectively.

B4: 5'-FAM-10-bp DNA (dsDNA)
DNA 1: CCTACGTAGG
DNA 2: CCTACGTAGG
Consider B4, for which the Kd in series [4] worked out at 3.12 ± 0.16 µM; in series [5] it was 11 ± 0.41 µM.

B5: 24 bp FRET DNA (dsDNA)
DNA 1: CGTGCTCTGCGATCTCTTCGATAA
DNA 2: TTATCGAAGAGATCGCAGAGCACG
As to B5, the binding result in series [6] and in series [7] was “binds” throughout.

B6: 30 bp FRET DNA (dsDNA)
DNA 1: CGTGCTCTGCGATCTCTTCGATAACCATAG
DNA 2: CTATGGTTATCGAAGAGATCGCAGAGCACG
As for B6, the binding result in series [6] and in series [8] was “binds” in each case.
